B1: CE115HA000 K52E one-arm antibody (antibody, human IgG1, kappa, L234A L235A, N297A, name in Kabat numbering)
heavy: QVQLVESGGGVVQPGRSLRLSCAASGFTFSNAWMHWVRQAPGKGLEWVAQIEAKSNNYATYYAESVKGRFTISRDDSKNSLYLQMNSLKTEDTAVYYCRYVHYGAYYGVDAWGQGTTVTVSSASTKGPSVFPLAPSSKSTSGGTAALGCLVKDYFPEPVTVSWNSGALTSGVHTFPAVLQSSGLYSLSSVVTVPSSSLGTQTYICNVNHKPSNTKVDKKVEPKSCDKTHTCPPCPAPEAAGGPSVFLFPPKPKDTLMISRTPEVTCVVVDVSHEDPEVKFNWYVDGVEVHNAKTKPREEQYASTYRVVSVLTVLHQDWLNGKEYKCKVSNKALPAPIEKTISKAKGQPREPQVYTLPPSRCELTKNQVSLSCAVKGFYPSDIAVEWESNGQPENNYKTTPPVLDSDGSFFLVSKLTVDKSRWQQGNVFSCSVMHEALHNHYTQKSLSLSPDYKDDDDK
chain: EPKSSDKTHTCPPCPAPELLGGPSVFLFPPKPKDTLMISRTPEVTCVVVDVSHEDPEVKFNWYVDGVEVHNAKTKPREEQYNSTYRVVSVLTVLHQDWLNGKEYKCKVSNKALPAPIEKTISKAKGQPREPQVCTLPPSRDELTKNQVSLWCLVKGFYPSDIAVEWESNGQPENNYKTTPPVLDSDGSFFLYSKLTVDKSRWQQGNVFSCSVMHEALHNRYTQKSLSLSP
light: DIVMTQSPLSLPVTPGEPASISCRSSQSLVHSNRNTYLHWYQQKPGQAPRLLIYKVSNRFSGVPDRFSGSGSGTDFTLKISRVEAEDVGVYYCGQGTQVPYTFGQGTKLEIKRTVAAPSVFIFPPSDEQLKSGTASVVCLLNNFYPREAKVQWKVDNALQSGNSQESVTEQDSKDSTYSLSSTLTLSKADYEKHKVYACEVTHQGLSSPVTKSFNRGEC
notes: one-arm antibody
B2: CE115HA000 K52S one-arm antibody (antibody, human IgG1, kappa, L234A L235A, N297A, name in Kabat numbering)
heavy: B1 heavy with E52S
chain: B1 chain
light: B1 light
notes: one-arm antibody
B3: CE115HA000 N31Y one-arm antibody (antibody, human IgG1, kappa, L234A L235A, N297A, name in Kabat numbering)
heavy: B1 heavy with N31Y, E52K
chain: B1 chain
light: B1 light
notes: one-arm antibody
B4: CE115HA000 K52bR one-arm antibody (antibody, human IgG1, kappa, L234A L235A, N297A, name in Kabat numbering)
heavy: B1 heavy with E52K, K54R
chain: B1 chain
light: B1 light
notes: one-arm antibody
B5: CE115HA000 K52W one-arm antibody (antibody, human IgG1, kappa, L234A L235A, N297A, name in Kabat numbering)
heavy: B1 heavy with E52W
chain: B1 chain
light: B1 light
notes: one-arm antibody
B6: CE115HA000 N31D one-arm antibody (antibody, human IgG1, kappa, L234A L235A, N297A, name in Kabat numbering)
heavy: B1 heavy with N31D, E52K
chain: B1 chain
light: B1 light
notes: one-arm antibody
B7: CE115HA000 K52bN one-arm antibody (antibody, human IgG1, kappa, L234A L235A, N297A, name in Kabat numbering)
heavy: B1 heavy with E52K, K54N
chain: B1 chain
light: B1 light
notes: one-arm antibody
B8: CE115HA000 N31F one-arm antibody (antibody, human IgG1, kappa, L234A L235A, N297A, name in Kabat numbering)
heavy: B1 heavy with N31F, E52K
chain: B1 chain
light: B1 light
notes: one-arm antibody
B9: CE115HA000 K64E one-arm antibody (antibody, human IgG1, kappa, L234A L235A, N297A, name in Kabat numbering)
heavy: B1 heavy with E52K, K67E
chain: B1 chain
light: B1 light
notes: one-arm antibody
B10: CE115HA000 N31W one-arm antibody (antibody, human IgG1, kappa, L234A L235A, N297A, name in Kabat numbering)
heavy: B1 heavy with N31W, E52K
chain: B1 chain
light: B1 light
notes: one-arm antibody
B11: CE115HA000 N31Q one-arm antibody (antibody, human IgG1, kappa, L234A L235A, N297A, name in Kabat numbering)
heavy: B1 heavy with N31Q, E52K
chain: B1 chain
light: B1 light
notes: one-arm antibody
B12: CE115HA000 K52bD one-arm antibody (antibody, human IgG1, kappa, L234A L235A, N297A, name in Kabat numbering)
heavy: B1 heavy with E52K, K54D
chain: B1 chain
light: B1 light
notes: one-arm antibody
B13: CE115HA000 K52F one-arm antibody (antibody, human IgG1, kappa, L234A L235A, N297A, name in Kabat numbering)
heavy: B1 heavy with E52F
chain: B1 chain
light: B1 light
notes: one-arm antibody
B14: CE115HA000 N31S one-arm antibody (antibody, human IgG1, kappa, L234A L235A, N297A, name in Kabat numbering)
heavy: B1 heavy with N31S, E52K
chain: B1 chain
light: B1 light
notes: one-arm antibody
B15: CE115HA000 K52bA one-arm antibody (antibody, human IgG1, kappa, L234A L235A, N297A, name in Kabat numbering)
heavy: B1 heavy with E52K, K54A
chain: B1 chain
light: B1 light
notes: one-arm antibody
B16: CE115HA000 K52I one-arm antibody (antibody, human IgG1, kappa, L234A L235A, N297A, name in Kabat numbering)
heavy: B1 heavy with E52I
chain: B1 chain
light: B1 light
notes: one-arm antibody
B17: CE115HA000 K64D one-arm antibody (antibody, human IgG1, kappa, L234A L235A, N297A, name in Kabat numbering)
heavy: B1 heavy with E52K, K67D
chain: B1 chain
light: B1 light
notes: one-arm antibody
B18: CE115HA000 N31A one-arm antibody (antibody, human IgG1, kappa, L234A L235A, N297A, name in Kabat numbering)
heavy: B1 heavy with N31A, E52K
chain: B1 chain
light: B1 light
notes: one-arm antibody
B19: CE115HA000 K52H one-arm antibody (antibody, human IgG1, kappa, L234A L235A, N297A, name in Kabat numbering)
heavy: B1 heavy with E52H
chain: B1 chain
light: B1 light
notes: one-arm antibody
B20: CE115HA000 K52R one-arm antibody (antibody, human IgG1, kappa, L234A L235A, N297A, name in Kabat numbering)
heavy: B1 heavy with E52R
chain: B1 chain
light: B1 light
notes: one-arm antibody
B21: CE115HA000 K52N one-arm antibody (antibody, human IgG1, kappa, L234A L235A, N297A, name in Kabat numbering)
heavy: B1 heavy with E52N
chain: B1 chain
light: B1 light
notes: one-arm antibody
B22: CE115HA000 N31I one-arm antibody (antibody, human IgG1, kappa, L234A L235A, N297A, name in Kabat numbering)
heavy: B1 heavy with N31I, E52K
chain: B1 chain
light: B1 light
notes: one-arm antibody
B23: CE115HA000 K64A one-arm antibody (antibody, human IgG1, kappa, L234A L235A, N297A, name in Kabat numbering)
heavy: B1 heavy with E52K, K67A
chain: B1 chain
light: B1 light
notes: one-arm antibody
B24: CE115HA000 N31G one-arm antibody (antibody, human IgG1, kappa, L234A L235A, N297A, name in Kabat numbering)
heavy: B1 heavy with N31G, E52K
chain: B1 chain
light: B1 light
notes: one-arm antibody
B25: CE115HA000 N31R one-arm antibody (antibody, human IgG1, kappa, L234A L235A, N297A, name in Kabat numbering)
heavy: B1 heavy with N31R, E52K
chain: B1 chain
light: B1 light
notes: one-arm antibody
B26: CE115HA000 K52bL one-arm antibody (antibody, human IgG1, kappa, L234A L235A, N297A, name in Kabat numbering)
heavy: B1 heavy with E52K, K54L
chain: B1 chain
light: B1 light
notes: one-arm antibody
B27: CE115HA000 N31K one-arm antibody (antibody, human IgG1, kappa, L234A L235A, N297A, name in Kabat numbering)
heavy: B1 heavy with N31K, E52K
chain: B1 chain
light: B1 light
notes: one-arm antibody
B28: CE115HA000 N31H one-arm antibody (antibody, human IgG1, kappa, L234A L235A, N297A, name in Kabat numbering)
heavy: B1 heavy with N31H, E52K
chain: B1 chain
light: B1 light
notes: one-arm antibody
B29: CE115HA000 K52bY one-arm antibody (antibody, human IgG1, kappa, L234A L235A, N297A, name in Kabat numbering)
heavy: B1 heavy with E52K, K54Y
chain: B1 chain
light: B1 light
notes: one-arm antibody
B30: CE115HA000 K52bQ one-arm antibody (antibody, human IgG1, kappa, L234A L235A, N297A, name in Kabat numbering)
heavy: B1 heavy with E52K, K54Q
chain: B1 chain
light: B1 light
notes: one-arm antibody
B31: CE115HA000 K52bS one-arm antibody (antibody, human IgG1, kappa, L234A L235A, N297A, name in Kabat numbering)
heavy: B1 heavy with E52K, K54S
chain: B1 chain
light: B1 light
notes: one-arm antibody
B32: CE115HA000 K52Y one-arm antibody (antibody, human IgG1, kappa, L234A L235A, N297A, name in Kabat numbering)
heavy: B1 heavy with E52Y
chain: B1 chain
light: B1 light
notes: one-arm antibody

Substitutions are numbered along the chain they refer to. In names and notes the source's numbering stands.
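Note: CD3 epsilon homodimer amine-coupled on a CM4 chip, run at 25 °C in HBS-EP+, Z = bound amount of each single-residue H chain variant over that of the parent antibody.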

T1 sequence (P07766 23-126): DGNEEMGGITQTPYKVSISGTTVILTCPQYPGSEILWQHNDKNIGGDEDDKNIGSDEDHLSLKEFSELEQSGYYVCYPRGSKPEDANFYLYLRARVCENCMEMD

The test addresses T1, CD3 epsilon homodimer protein (UniProt P07766 23-126).
T1 construct: also called CD3 (CD3 epsilon)
The test can be described thus: SPR Biacore T200, antibody over immobilised CD3e homodimer. (In general: SPR reads the build-up and loss of mass on a sensor chip optically.)
Method: An appropriate amount of CD3 epsilon homodimer protein was immobilized onto Sensor chip CM4 (GE Healthcare Japan Corp.) by the amine coupling method. Then, the antibody having an appropriate concentration was injected thereto as an analyte and allowed to interact with the CD3 epsilon homodimer protein on the sensor chip. Then, the sensor chip was regenerated by the injection of 10 mmol/L glycine-HCl (pH 1.5). The assay was conducted at 25 degrees C., and HBS-EP+(GE Healthcare Japan Corp.) was used as a running buffer. […] Each parameter was calculated using Biacore T200 Evaluation Software (GE Healthcare Japan Corp.).
Specifically, when the amount of the antibody comprising CE115HA000 bound was defined as X and the amount of the H chain one-amino acid altered form bound was defined as Y, a value of Z (ratio of amounts bound)=Y/X was used.
As for B1, the “ratio of amounts bound (Z=Y/X vs CE115HA000)” value (“ratio of amounts bound” below) was 0.26.
In the case of B2, the “ratio of amounts bound” value came out at 0.28.
For B3 the value was 0.64; for B4, 1.11.
Take B5: the “ratio of amounts bound” value came out at 0.22.
As to B6, the “ratio of amounts bound” value worked out at 0.37.
For B7 the value was 0.27; for B8, 0.62; for B9, 0.74.
On to B10, for which the “ratio of amounts bound” value was 0.63.
In the case of B11, the “ratio of amounts bound” value was 0.49.
For B12 the value was 0.27; for B13, 0.17; for B14, 0.81.
For B15 the value was 0.67; for B16, 0.33.
The value for B17 was 0.72; that for B18 was 0.5.
Turning to B19, the “ratio of amounts bound” value stood at 0.22.
The value for B20 was 0.91.
Consider B21, for which the “ratio of amounts bound” value was 0.34.
The value for B22 was 0.81; that for B23 was 0.82; that for B24 was 0.39.
For B25 the value was 1.14; for B26, 0.61; for B27, 1.01.
Consider B28, for which the “ratio of amounts bound” value was 0.68.
On to B29, for which the “ratio of amounts bound” value was 0.74.
The value for B30 was 0.6; that for B31 was 0.68; that for B32 was 0.18.

For the origin of these results see patent US20240270846A1 (published 2024).
